B1: E3 ubiquitin-protein ligase LNX (Homo sapiens), Q8TBB1 (parent)
chain: MNQPESANDPEPLCAVCGQAHSLEENHFYSYPEEVDDDLICHICLQALLDPLDTPCGHTYCTLCLTNFLVEKDFCPMDRKPLVLQHCKKSSILVNKLLNKLLVTCPFREHCTQVLQRCDLEHHFQTSCKGASHYGLTKDRKRRSQDGCPDGCASLTATAPSPEVSAAATISLMTDEPGLDNPAYVSSAEDGQPAISPVDSGRSNRTRARPFERSTIRSRSFKKINRALSVLRRTKSGSAVANHADQGRENSENTTAPEVFPRLYHLIPDGEITSIKINRVDPSESLSIRLVGGSETPLVHIIIQHIYRDGVIARDGRLLPGDIILKVNGMDISNVPHNYAVRLLRQPCQVLWLTVMREQKFRSRNNGQAPDAYRPRDDSFHVILNKSSPEEQLGIKLVRKVDEPGVFIFNVLDGGVAYRHGQLEENDRVLAINGHDLRYGSPESAAHLIQASERRVHLVVSRQVRQRSPDIFQEAGWNSNGSWSPGPGERSNTPKPLHPTITCHEKVVNIQKDPGESLGMTVAGGASHREWDLPIYVISVEPGGVISRDGRIKTGDILLNVDGVELTEVSRSEAVALLKRTSSSIVLKALEVKEYEPQEDCSSPAALDSNHNMAPPSDWSPSWVMWLELPRCLYNCKDIVLRRNTAGSLGFCIVGGYEEYNGNKPFFIKSIVEGTPAYNDGRIRCGDILLAVNGRSTSGMIHACLARLLKELKGRITLTIVSWPGTFL
partner: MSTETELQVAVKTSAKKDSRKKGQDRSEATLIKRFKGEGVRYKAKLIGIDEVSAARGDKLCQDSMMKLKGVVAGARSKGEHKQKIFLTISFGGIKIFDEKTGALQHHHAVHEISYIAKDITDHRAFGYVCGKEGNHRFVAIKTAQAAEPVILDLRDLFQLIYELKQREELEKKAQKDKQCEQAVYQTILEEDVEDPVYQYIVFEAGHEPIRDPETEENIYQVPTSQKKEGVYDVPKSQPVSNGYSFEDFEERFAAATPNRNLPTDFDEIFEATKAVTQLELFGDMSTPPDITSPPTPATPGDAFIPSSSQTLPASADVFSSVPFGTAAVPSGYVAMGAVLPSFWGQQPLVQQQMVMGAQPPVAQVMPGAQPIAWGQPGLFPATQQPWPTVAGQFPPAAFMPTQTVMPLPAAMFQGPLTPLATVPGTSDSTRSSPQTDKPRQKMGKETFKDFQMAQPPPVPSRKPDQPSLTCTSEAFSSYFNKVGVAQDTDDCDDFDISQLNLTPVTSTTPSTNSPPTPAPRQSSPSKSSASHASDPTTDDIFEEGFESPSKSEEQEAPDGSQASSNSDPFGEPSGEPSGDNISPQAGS
B2: E3 ubiquitin-protein ligase LNX (Homo sapiens), Q8TBB1 (parent)
chain: B1 chain
partner: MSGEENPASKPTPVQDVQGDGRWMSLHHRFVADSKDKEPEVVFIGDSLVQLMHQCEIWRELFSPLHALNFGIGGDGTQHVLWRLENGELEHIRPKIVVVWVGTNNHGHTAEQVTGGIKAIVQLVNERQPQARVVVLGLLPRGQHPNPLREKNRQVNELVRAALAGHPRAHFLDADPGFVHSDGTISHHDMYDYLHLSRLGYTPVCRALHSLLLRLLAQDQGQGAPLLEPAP
B3: Atos homolog protein B (Homo sapiens), Q7L5A3 (parent)
chain: MRHVQAEPSPSSEPEAGPSQPPVRQGALQGGLLMGYSPAGGATSPGVYQVSIFSPPAGTSEPHRALKRQAPSTEGPRELKRGPGLGAREGLPPEEPSTVGLLGPEGPGLGLGVASQHFSHRGLCVVEQRSSVTSSWTSGAWSPPCPPSNASCNTLHTRDWASPDPGGQGSLGESPGPAPPGQLHTLDTDLHSLAQIGGKSPVAGVGNGGSLWPRESPGTANGHSPEHTPPGPGPPGPCPTKRRLLPAGEAPDVSSEEEGPAPRRRRGSLGHPTAANSSDAKATPFWSHLLPGPKEPVLDPTDCGPMGRRLKGARRLKLSPLRSLRKGPGLLSPPSASPVPTPAVSRTLLGNFEESLLRGRFAPSGHIEGFTAEIGASGSYCPQHVTLPVTVTFFDVSEQNAPAPFLGIVDLNPLGRKGYSVPKVGTVQVTLFNPNQTVVKMFLVTFDFSDMPAAHMTFLRHRLFLVPVGEEGNANPTHRLLCYLLHLRFRSSRSGRLSLHGDIRLLFSRRSLELDTGLPYELQAVTEAPHNPRYSPLP
partner: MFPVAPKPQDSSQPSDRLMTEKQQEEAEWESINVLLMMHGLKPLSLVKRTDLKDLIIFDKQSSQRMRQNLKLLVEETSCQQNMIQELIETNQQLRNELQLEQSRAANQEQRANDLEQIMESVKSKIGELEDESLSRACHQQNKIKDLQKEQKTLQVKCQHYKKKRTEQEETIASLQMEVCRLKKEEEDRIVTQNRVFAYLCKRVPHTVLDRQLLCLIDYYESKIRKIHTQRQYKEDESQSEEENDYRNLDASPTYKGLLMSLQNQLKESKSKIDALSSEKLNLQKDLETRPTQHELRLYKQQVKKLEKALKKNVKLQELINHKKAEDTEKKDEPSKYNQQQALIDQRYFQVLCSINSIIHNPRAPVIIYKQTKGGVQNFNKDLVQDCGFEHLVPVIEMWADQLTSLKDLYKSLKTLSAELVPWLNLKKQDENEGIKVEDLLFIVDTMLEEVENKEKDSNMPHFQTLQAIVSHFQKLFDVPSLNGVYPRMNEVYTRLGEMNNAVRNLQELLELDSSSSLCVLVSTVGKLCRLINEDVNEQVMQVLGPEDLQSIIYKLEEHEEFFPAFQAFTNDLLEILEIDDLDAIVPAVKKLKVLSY
B4: E3 ubiquitin-protein ligase LNX (Homo sapiens), Q8TBB1 (parent)
chain: B1 chain
partner: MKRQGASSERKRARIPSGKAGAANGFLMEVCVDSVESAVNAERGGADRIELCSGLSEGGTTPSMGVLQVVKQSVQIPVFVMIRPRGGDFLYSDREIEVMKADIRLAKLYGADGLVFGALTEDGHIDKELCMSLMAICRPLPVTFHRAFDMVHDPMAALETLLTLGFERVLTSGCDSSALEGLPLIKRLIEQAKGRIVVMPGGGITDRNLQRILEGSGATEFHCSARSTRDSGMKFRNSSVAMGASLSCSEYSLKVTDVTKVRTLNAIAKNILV
B5: Zyxin (Homo sapiens), Q15942 (parent)
chain: MAAPRPSPAISVSVSAPAFYAPQKKFGPVVAPKPKVNPFRPGDSEPPPAPGAQRAQMGRVGEIPPPPPEDFPLPPPPLAGDGDDAEGALGGAFPPPPPPIEESFPPAPLEEEIFPSPPPPPEEEGGPEAPIPPPPQPREKVSSIDLEIDSLSSLLDDMTKNDPFKARVSSGYVPPPVATPFSSKSSTKPAAGGTAPLPPWKSPSSSQPLPQVPAPAQSQTQFHVQPQPQPKPQVQLHVQSQTQPVSLANTQPRGPPASSPAPAPKFSPVTPKFTPVASKFSPGAPGGSGSQPNQKLGHPEALSAGTGSPQPPSFTYAQQREKPRVQEKQHPVPPPAQNQNQVRSPGAPGPLTLKEVEELEQLTQQLMQDMEHPQRQNVAVNELCGRCHQPLARAQPAVRALGQLFHIACFTCHQCAQQLQGQQFYSLEGAPYCEGCYTDTLEKCNTCGEPITDRMLRATGKAYHPHCFTCVVCARPLEGTSFIVDQANRPHCVPDYHKQYAPRCSVCSEPIMPEPGRDETVRVVALDKNFHMKCYKCEDCGKPLSIEADDNGCFPLDGHVLCRKCHTARAQT
partner: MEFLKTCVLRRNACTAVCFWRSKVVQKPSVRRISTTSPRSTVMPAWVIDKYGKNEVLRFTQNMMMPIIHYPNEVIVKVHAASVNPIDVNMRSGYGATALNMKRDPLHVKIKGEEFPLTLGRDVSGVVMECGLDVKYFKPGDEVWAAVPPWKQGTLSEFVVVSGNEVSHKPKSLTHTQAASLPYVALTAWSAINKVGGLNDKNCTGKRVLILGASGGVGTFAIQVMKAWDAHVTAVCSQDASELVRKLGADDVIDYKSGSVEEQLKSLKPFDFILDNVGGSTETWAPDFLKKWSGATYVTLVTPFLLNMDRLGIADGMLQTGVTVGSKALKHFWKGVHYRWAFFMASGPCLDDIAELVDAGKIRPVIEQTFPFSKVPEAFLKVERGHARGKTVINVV

Variants of: B1
Settings: with dab1_human DAB1, O75553

| effect of a mutation on the interaction | Variant |
| --- | --- |
| disrupting interaction strength | E295K |

Variants of: B2
Settings: with pa1b3_human PAFAH1B3, Q15102

| effect of a mutation on the interaction | Variant |
| --- | --- |
| disrupting interaction strength | E295K |

Variants of: B3
Settings: with cep70_human CEP70, Q8NHQ1

| effect of a mutation on the interaction | Variant |
| --- | --- |
| disrupting interaction strength | C381Y |

Variants of: B4
Settings: with cutc_human CUTC

| effect of a mutation on the interaction | Variant |
| --- | --- |
| disrupting interaction strength | E295K |

Variants of: B5
Settings: with rt4i1_human RTN4IP1, Q8WWV3

| effect of a mutation on the interaction | Variant |
| --- | --- |
| with no effect | R167G |

Source: IntAct's records for PubMed 29892012
